Assay results taken from the supplement of paper PMC5998384.

Key:
HeLa Kyoto [1] = test: solubility in G1/S (NP-40 vs SDS abundance) (log2 ratio); higher = more soluble; conditions: cell cycle stage: G1/S
HeLa Kyoto [2] = test: melting temperature (median over replicates), in situ; higher = more thermally stable
HeLa Kyoto [3] = test: solubility change mitosis vs G1/S (difference of NP-40 vs SDS log2 ratios) (log2 ratio difference); higher = more soluble in mitosis
HeLa Kyoto [4] = test: thermal stability score vs G1/S (z-score of summed log2 fold changes over temperatures); higher = more thermally stable than in G1/S
[5] = cell cycle stage: early G1 (4.5 h after nocodazole release)
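Throughout, for melting temperature (median over replicates), in situ: HeLa Kyoto cells synchronized by double thymidine or nocodazole block, proteins quantified by TMT10plex mass spectrometry, three independent biological replicates.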
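Throughout, for solubility change mitosis vs G1/S (difference of NP-40 vs SDS log2 ratios): synchronized HeLa Kyoto cells (double thymidine block for G1/S, nocodazole release for mitosis), protein amounts in NP-40 versus SDS lysates quantified by mass spectrometry, three biological replicates.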
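Throughout, for solubility in G1/S (NP-40 vs SDS abundance): HeLa Kyoto cells arrested at G1/S by double thymidine block, proteins quantified by TMT10plex mass spectrometry in mild NP-40 versus SDS extracts, three biological replicates.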
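Throughout, for thermal stability score vs G1/S (z-score of summed log2 fold changes over temperatures): synchronized HeLa Kyoto cells, proteins quantified by TMT10plex mass spectrometry, three biological replicates, mitosis taken 0.5 h after nocodazole release, G1/S directly after double thymidine block.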

Row | Substance | solubility in G1/S (log2) (HeLa Kyoto [1]) | melting temperature (HeLa Kyoto [2]; cell cycle stage: mitosis) [°C] | solubility change mitosis (log2) (HeLa Kyoto [3]) | thermal stability score (HeLa Kyoto [4]; [5]) | thermal stability score (HeLa Kyoto [4]; cell cycle stage: mitosis) | melting temperature (HeLa Kyoto [2]; cell cycle stage: G1/S) [°C]
1 | MEASVILPILKKKLAFLSGGKDRRSGLILTIPLCLEQTNMDELSVTLDYLLSIPSEKCKARGFTVIVDGRKSQWNVVKTVVVMLQNVVPAEVSLVCVVKPDEFWDKKVTHFCFWKEKDRLGFEVILVSANKLTRYIEPCQLTEDFGGSLTYDHMDWLNKRLVFEKFTKESTSLLDELALINNGSDKGNQQEKERSVDLNFLPSVDPETVLQTGHELLSELQQRRFNGSDGGVSWSPMDDELLAQPQVMKLLDSLREQYTRYQEVCRQRSKRTQLEEIQQKVMQVVNWLEGPGSEQLRAQWGIGDSIRASQALQQKHEEIESQHSEWFAVYVELNQQIAALLNAGDEEDLVELKSLQQQLSDVCYRQASQLEFRQNLLQAALEFHGVAQDLSQQLDGLLGMLCVDVAPADGASIQQTLKLLEEKLKSVDVGLQGLREKGQGLLDQISNQASWAYGKDVTIENKENVDHIQGVMEDMQLRKQRCEDMVDVRRLKMLQMVQLFKCEEDAAQAVEWLSELLDALLKTHIRLGDDAQETKVLLEKHRKFVDVAQSTYDYGRQLLQATVVLCQSLRCTSRSSGDTLPRLNRVWKQFTIASEERVHRLEMAIAFHSNAEKILQDCPEEPEAINDEEQFDEIEAVGKSLLDRLTVPVVYPDGTEQYFGSPSDMASTAENIRDRMKLVNLKRQQLRHPEMVTTES [SESTD1] | 0.132 | 49.5 | -0.126 | -0.259 | 0.238 | 
2 | MQPASAKWYDRRDYVFIEFCVEDSKDVNVNFEKSKLTFSCLGGSDNFKHLNEIDLFHCIDPNDSKHKRTDRSILCCLRKGESGQSWPRLTKERAKLNWLSVDFNNWKDWEDDSDEDMSNFDRFSEMMNNMGGDEDVDLPEVDGADDDSQDSDDEKMPDLE [PTGES3] | 0.0757 | 49.9 | -0.00282 | 3.93 | 3.45 | 48.7
3 | MAEGERQPPPDSSEEAPPATQNFIIPKKEIHTVPDMGKWKRSQAYADYIGFILTLNEGVKGKKLTFEYRVSEMWNEVHEEKEQAAKQSVSCDECIPLPRAGHCAPSEAIEKLVALLNTLDRWIDETPPVDQPSRFGNKAYRTWYAKLDEEAENLVATVVPTHLAAAVPEVAVYLKESVGNSTRIDYGTGHEAAFAAFLCCLCKIGVLRVDDQIAIVFKVFNRYLEVMRKLQKTYRMEPAGSQGVWGLDDFQFLPFIWGSSQLIDHPYLEPRHFVDEKAVNENHKDYMFLECILFITEMKTGPFAEHSNQLWNISAVPSWSKVNQGLIRMYKAECLEKFPVIQHFKFGSLLPIHPVTSG [PPP2R4] | 0.247 | 53.8 | -0.119 | 2.14 | 2.26 | 53.8
4 | CUL7 | 0.0417 | 49.1 | -0.279 | 0.604 | 0.125 | 
5 | MWLQQRLKGLPGLLSSSWARRLLCLLGLLLLLLWFGGSGARRAAGGLHLLPWSRGEPGAAEPSACLEAATRAWRGLRERGEVVPLGPGVPALVANGFLALDVAANRLWVTPGEREPAVAPDFVPFVQLRPLSALAEAGEAVLLLREGLLRRVRCLQLGSPGPGPVAAGPGPASVSGLAAGSGRDCVLLQEDFLAHRGRPHVYLQRIQLNNPTERVAALQTVGPTAGPAPKAFTSTLEKVGDHQFLLYSGRSPPTPTGLVHLVVVAAKKLVNRLQVAPKTQLDETVLWVVHVSGPINPQVLKSKAAKELKALQDLARKEMLELLDMPAAELLQDHQLLWAQLFSPGVEMKKITDTHTPSGLTVNLTLYYMLSCSPAPLLSPSLSHRERDQMESTLNYEDHCFSGHATMHAENLWPGRLSSVQQILQLSDLWRLTLQKRGCKGLVKVGAPGILQGMVLSFGGLQFTENHLQFQADPDVLHNSYALHGIRYKNDHINLAVLADAEGKPYLHVSVESRGQPVKIYACKAGCLDEPVELTSAPTGHTFSVMVTQPITPLLYISTDLTHLQDLRHTLHLKAILAHDEHMAQQDPGLPFLFWFSVASLITLFHLFLFKLIYNEYCGPGAKPLFRSKEDPSV [KIAA2013] | -0.156 | 56.1 | -0.126 | -3.23 | -4.42 | 56.9
6 | MLSALARPASAALRRSFSTSAQNNAKVAVLGASGGIGQPLSLLLKNSPLVSRLTLYDIAHTPGVAADLSHIETKAAVKGYLGPEQLPDCLKGCDVVVIPAGVPRKPGMTRDDLFNTNATIVATLTAACAQHCPEAMICVIANPVNSTIPITAEVFKKHGVYNPNKIFGVTTLDIVRANTFVAELKGLDPARVNVPVIGGHAGKTIIPLISQCTPKVDFPQDQLTALTGRIQEAGTEVVKAKAGAGSATLSMAYAGARFVFSLVDAMNGKEGVVECSFVKSQETECTYFSTPLLLGKKGIEKNLGIGKVSSFEEKMISDAIPELKASIKKGEDFVKTLK [MDH2] | 0.383 | 57.2 | -0.0422 | -0.843 | -1.62 | 56.9
7 | MPVGGLLPLFSSPAGGVLGGGLGGGGGRKGSGPAALRLTEKFVLLLVFSAFITLCFGAIFFLPDSSKLLSGVLFHSSPALQPAADHKPGPGARAEDAAEGRARRREEGAPGDPEAALEDNLARIRENHERALREAKETLQKLPEEIQRDILLEKKKVAQDQLRDKAPFRGLPPVDFVPPIGVESREPADAAIREKRAKIKEMMKHAWNNYKGYAWGLNELKPISKGGHSSSLFGNIKGATIVDALDTLFIMEMKHEFEEAKSWVEENLDFNVNAEISVFEVNIRFVGGLLSAYYLSGEEIFRKKAVELGVKLLPAFHTPSGIPWALLNMKSGIGRNWPWASGGSSILAEFGTLHLEFMHLSHLSGNPIFAEKVMNIRTVLNKLEKPQGLYPNYLNPSSGQWGQHHVSVGGLGDSFYEYLLKAWLMSDKTDLEAKKMYFDAVQAIETHLIRKSSSGLTYIAEWKGGLLEHKMGHLTCFAGGMFALGADAAPEGMAQHYLELGAEIARTCHESYNRTFMKLGPEAFRFDGGVEAIATRQNEKYYILRPEVMETYMYMWRLTHDPKYRKWAWEAVEALENHCRVNGGYSGLRDVYLLHESYDDVQQSFFLAETLKYLYLIFSDDDLLPLEHWIFNSEAHLLPILPKDKKEVEIREE [MAN1A1] | 0.133 | 54.7 | -0.0318 | 1.56 | 0.0924 | 55
